Results taken from US20150011730A1.

Experiments:
[1] = biological target: CDK2/cyclin A (as used in the binding assay) (UniProt P24941)
[2] = biological target: CDK4/cyclin D1 (as used in the binding assay) (UniProt P11802)
Chain of CDK4/cyclin D1 (as used in the binding assay) (P11802 whole entry, chain 1 of 2): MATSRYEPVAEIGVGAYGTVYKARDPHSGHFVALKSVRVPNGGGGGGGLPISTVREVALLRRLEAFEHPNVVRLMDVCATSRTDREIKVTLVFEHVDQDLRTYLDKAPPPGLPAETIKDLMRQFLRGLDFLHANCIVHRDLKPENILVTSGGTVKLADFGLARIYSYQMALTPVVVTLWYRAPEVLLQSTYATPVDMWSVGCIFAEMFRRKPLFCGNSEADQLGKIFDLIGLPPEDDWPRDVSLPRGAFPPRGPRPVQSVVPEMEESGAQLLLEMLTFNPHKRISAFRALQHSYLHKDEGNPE
Chain of CDK4/cyclin D1 (as used in the binding assay) (P24385 whole entry, chain 2 of 2, further chain): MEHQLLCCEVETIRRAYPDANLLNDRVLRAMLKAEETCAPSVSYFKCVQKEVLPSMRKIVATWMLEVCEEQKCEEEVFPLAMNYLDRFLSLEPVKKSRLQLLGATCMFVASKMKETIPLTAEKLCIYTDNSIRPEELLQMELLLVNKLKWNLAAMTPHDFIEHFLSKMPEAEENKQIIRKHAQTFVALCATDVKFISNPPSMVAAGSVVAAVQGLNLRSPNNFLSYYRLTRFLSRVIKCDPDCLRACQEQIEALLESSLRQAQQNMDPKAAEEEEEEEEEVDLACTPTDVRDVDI

Row | IC50 [1] | IC50 [2] | Substance
1 | 0.505 µM | 61.2 µM | R{bLeu}NMeF (peptide)
2 | 0.405 µM | 89.7 µM | R{bLeu}NMeF-NH2 (peptide)
